Data reported in the supplement of paper PMC10567573.

B1: SLC2A12 (parent)
chain: LTLVFFVQITGQPNILFYASTVLK
B2: WDFY1 (parent)
chain: LLIPKEDGVITASEDRTIRVWLKR

Variants of: B1
Experiment: protein stability index of a GFP-peptide fusion (GPS, HEK-293T) (PSI 1-6); higher = more stable
Settings: c terminus: a fixed tail appended
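Further: lentivirally expressed fusions sorted by FACS into six bins by GFP to DsRed ratio, PSI derived from sequencing read proportions per bin multiplied by bin number.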

Variant | protein stability index
CTLVFFVQITGQPNILFYASTVLK | 2.29
ATLVFFVQITGQPNILFYASTVLK | 2.8
DTLVFFVQITGQPNILFYASTVLK | 2.23

Variants of: B2
Experiment: as above
Settings: c terminus: a fixed tail appended

Variant | protein stability index
LLIPKIDGVITASEDRTIRVWLKR | 1.98
LLIPKFDGVITASEDRTIRVWLKR | 2.25
LLIPKQDGVITASEDRTIRVWLKR | 3.73
LLIPKHDGVITASEDRTIRVWLKR | 2.67
LLIPKDDGVITASEDRTIRVWLKR | 2.82
LLIPKADGVITASEDRTIRVWLKR | 2.59
LLIPKKDGVITASEDRTIRVWLKR | 2.18
LLIPKWDGVITASEDRTIRVWLKR | 1.66
LLIPKCDGVITASEDRTIRVWLKR | 2.67
LLIPKGDGVITASEDRTIRVWLKR | 2.56
LLIPKEDGVETASEDRTIRVWLKR | 2.68
LLIPKEDGVLTASEDRTIRVWLKR | 2.21
LLIPKEDGVQTASEDRTIRVWLKR | 2.62
LLIPKEDGVGTASEDRTIRVWLKR | 2.76
LLIPKEDGVATASEDRTIRVWLKR | 2.4
LLIPKEDGVDTASEDRTIRVWLKR | 2.83
LLIPKEDGVRTASEDRTIRVWLKR | 2.07
LLIPKEDGVMTASEDRTIRVWLKR | 2.14
LLIPKEDGVFTASEDRTIRVWLKR | 2.42
LLIPKEDGVYTASEDRTIRVWLKR | 1.91
LLIPKEDGVITASEDRTIRVWTKR | 2.54
LLIPKEDGVITASEDRTIRVWHKR | 2.75
LLIPKEDGVITASEDRTIRVWEKR | 3.61

Variant | protein stability index
LLIPKEDGVITASEDRTIRVWPKR | 4.22
LLIPKEDGVITASEDRTIRVWVKR | 2.17
LLIPKEDGVITASEDRTIRVWIKR | 2.56
LLIPKEDGVITASEDRTIRVWCKR | 2.48
LLIPKEDGVITASEDRTIRVWYKR | 2.83
LLIPKEDGVITASEDRTIRVWMKR | 3.01
LLIYKEDGVITASEDRTIRVWLKR | 1.51
LLIIKEDGVITASEDRTIRVWLKR | 1.52
LLIWKEDGVITASEDRTIRVWLKR | 2.35
LLIMKEDGVITASEDRTIRVWLKR | 1.88
LLIGKEDGVITASEDRTIRVWLKR | 1.74
LLIFKEDGVITASEDRTIRVWLKR | 2.78
LLIPKEDGVITYSEDRTIRVWLKR | 2.66
LLIPKEDGVITSSEDRTIRVWLKR | 1.71
LLIPKEDGVITHSEDRTIRVWLKR | 2.08
LLIPKEDGVITCSEDRTIRVWLKR | 1.77
LLIPKEDGVITFSEDRTIRVWLKR | 1.91
LLIPKEDGVITISEDRTIRVWLKR | 1.92
LLIPKEDGVITKSEDRTIRVWLKR | 2.19
LLIPKEDGVITASEDRTIRVMLKR | 2.06
LLIPKEDGVITASEDRTIRVALKR | 3.07
LLIPKEDGVITASEDRTIRVSLKR | 2.8
LLIPKEDGVITASEDRTIRVLLKR | 2.78

Variant | protein stability index
LLIPKEDGVITASEDRTIRVQLKR | 4.25
LLIPKEDGVITAEEDRTIRVWLKR | 1.5
LLIPKEDGVITAPEDRTIRVWLKR | 1.66
LLIPKEDGVITANEDRTIRVWLKR | 1.99
LLIPKEDGVITAHEDRTIRVWLKR | 1.91
LLIPKEDGVITAVEDRTIRVWLKR | 2.32
LLIPKEDGVITAQEDRTIRVWLKR | 3.07
LLIPKEDGVITACEDRTIRVWLKR | 1.51
LLIPKEDGVITATEDRTIRVWLKR | 2.2
LLIPKEDGVITAMEDRTIRVWLKR | 1.45
LLIPKEDGVITALEDRTIRVWLKR | 2.15
LLIPKEDGVITASEDRTIRVWLRR | 2.74
LLIPKEDGVITASEDRTIRVWLTR | 2.62
LLIPKEDGVITASEDRTIRVWLNR | 2.63
LLIPKEDGVITASEDRTIRVWLGR | 1.83
LLIPKEDGVITASEDRTIRVWLER | 2.9
LLIPKEDGVITASEDRTIRVWLVR | 2.28
LLIPKEDGVITASEDRTIRVWLLR | 2.44
LLIPKEDGVITASEDRTIRVWLKE | 2.48
LLIPKEDGVITASEDRTIRVWLKQ | 2.71
LLIPKEDGVITASEDRTIRVWLKW | 2.01
LLIPKEDGVITASEDRTIRVWLKL | 1.83
LLIPKEDGVITASEDRTIRVWLKV | 1.69

Variant | protein stability index
LLIPKEDGVITASEDRTIRVWLKG | 3.37
LLIPKEDGVITASEDRTIRVWLKF | 2.44
LLIPKEDGVITASEDRTIRVWLKI | 3.32
KLIPKEDGVITASEDRTIRVWLKR | 2.74
ALIPKEDGVITASEDRTIRVWLKR | 2.5
RLIPKEDGVITASEDRTIRVWLKR | 2.73
WLIPKEDGVITASEDRTIRVWLKR | 1.73
TLIPKEDGVITASEDRTIRVWLKR | 3.62
CLIPKEDGVITASEDRTIRVWLKR | 2.35
PLIPKEDGVITASEDRTIRVWLKR | 4.03
QLIPKEDGVITASEDRTIRVWLKR | 2.94
ELIPKEDGVITASEDRTIRVWLKR | 3.2
LLKPKEDGVITASEDRTIRVWLKR | 3.17
LLCPKEDGVITASEDRTIRVWLKR | 2.24
LLQPKEDGVITASEDRTIRVWLKR | 2.66
LLEPKEDGVITASEDRTIRVWLKR | 3.36
LLYPKEDGVITASEDRTIRVWLKR | 1.89
LLIPHEDGVITASEDRTIRVWLKR | 1.65
LLIPGEDGVITASEDRTIRVWLKR | 3.24
LLIPNEDGVITASEDRTIRVWLKR | 2.15
LLIPLEDGVITASEDRTIRVWLKR | 1.36
LLIPSEDGVITASEDRTIRVWLKR | 1.2
